# Laboratory results published in patent publication US20220017636A1 (Amgen, published 2022).
# Residue numbers refer to the chain shown, from its start.
# B1: 18182-B5 (scFv)
# scFv: EVQLLESGGGLVQPGGSLRLSCAASGFTFSSHAMSWVRQAPGKGLEWVSAISGSGGGTYYADSVKGRFTISRDNSKNTLYLQMNSLRAEDTAVYYCATGKGVHLGFDYWGQGTLVTVSSGGGGSGGGGSGGGGSELVLTQPPSVSVAPGQTARITCGGNNIGSKSVHWYQQKPGQAPVLVVYDDNDRPSGIPERFSGSNFGNTATLIISRVEAGDEADYYCQVWDSSSDHVVFGGGTKLTVL
# notes: scFv in bacterial lysate, detected with anti-Flag M2
# B2: 18182-G2 (scFv)
# scFv: B1 scFv with Y60N, V93A, A97V, L179M, F200S, I207T, V232I
# notes: as for B1
# B3: 18182-E1 (scFv)
# scFv: B1 scFv with Y60N, V93A, A97V, L179M, F200S, I207T
# notes: as for B1
# B4: 18182-E10 (scFv)
# scFv: EVQLLESGGGLVQPGGSLRLSCAASGFTFSSHAMSWVRQAPGQGLEWVSSISGSGGGTYYAASVKGRFTISRDNSKNTLYLQMNSLRAEDTAVYYCATGKGVHLNFDYWGQGTLVTVSSGGGGSGGGGSGGGGSELALTQPASASVAPGQTARITCGGNNIGSKSVHWHQQKPGQAPVLVVYDDNDRPSGIPERFSGSNSGNTATLTISRVEAGDEADFYCQVWDSSSDHVVFGGGTKLTVL
# notes: as for B1
# B5: 18182-H9 (scFv)
# scFv: B1 scFv with G66A, Y169H, F200S, I207T, Y219F
# notes: as for B1
# B6: 18182-E5 (scFv)
# scFv: B1 scFv with H32Y, A50T, Y169H, F200S, I207T, S226Y
# notes: as for B1
# B7: 18182-G8 (scFv)
# scFv: B1 scFv with Q13K, H32Y, S35N, V64G, G105N, L179M, F200S, I207T
# notes: as for B1
# B8: 18182-A4 (scFv)
# scFv: B1 scFv with L11V, G16R, H32Y, S35T, K43Q, A50S, D62A, E212A
# notes: as for B1
# B9: 18182-G6 (scFv)
# scFv: B1 scFv with H32Y, V93A, A97V, Y169H, A176S, V181I, S198F, F200S, I207T
# notes: as for B1
# B10: 18182-B12 (scFv)
# scFv: B1 scFv with H32Y, N84S, Y169H, F200S, I207T, S226Y
# notes: as for B1
# B11: 18182-E6 (scFv)
# scFv: B1 scFv with H32Y, G105N, P142S, E212A
# notes: as for B1
# B12: 18089-D12 (scFv)
# scFv: EVQLLESGGGVVQPGRSLRLSCAASGFTFSTYGMHWVRQAPGKGLEWVAVISYDGSNKYYADSVKGRFTISRDDSKNTLYLQMNSLRAEDTAVYYCARGQLLTGYWGQGTLVTVSSGGGGSGGGGSGGGGSELVMTQSPSSLSASVGDRVTITCRASQGISNYLAWYQQKPGKVPKLLIYAASTLQSGVPSRFSGSGSGTDFTLTISSLQPEDVATYYCQKYNSAPFTFGPGTKVEIK
# notes: as for B1
# Molecular target: T1, MYOF peptide complexed with HLA-A*02:01 on T2 cells (human)
# T1 construct: whole, on cells
# Assay: flow cytometry, peptide-loaded T2 cells;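 note: binding of single-chain Fv antibody constructs, raised in XenoMouse, to peptide-pulsed T2 cells measured by flow cytometry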
# Experimental: (§1) Binding of pMAGE-HLA scFv constructs, generated from the XenoMouse, on peptide loaded T2 cells was evaluated by flow cytometry.
row,Signal/background,Binder
1,1,B1
2,1,B2
3,0.9,B3
4,0.9,B4
5,1.1,B5
6,0.9,B6
7,1,B7
8,1,B8
9,1,B9
10,0.8,B10
11,1,B11
12,1.1,B12

# Molecular target: T2, DPYSL4 peptide complexed with HLA-A*02:01 on T2 cells (human)
# T2 construct: whole, on cells
# Assay: flow cytometry, peptide-loaded T2 cells;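 note: binding of single-chain Fv antibody constructs, raised in XenoMouse, to peptide-pulsed T2 cells measured by flow cytometry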
# Experimental: as §1
row,Signal/background,Binder
1,1,B1
2,1.1,B2
3,0.9,B3
4,0.9,B4
5,1.1,B5
6,1,B6
7,1,B7
8,1,B8
9,1,B9
10,1,B10
11,0.9,B11
12,1.1,B12

# Molecular target: T3, MB peptide complexed with HLA-A*02:01 on T2 cells (human)
# T3 construct: whole, on cells
# Assay: flow cytometry, peptide-loaded T2 cells;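 note: binding of single-chain Fv antibody constructs, raised in XenoMouse, to peptide-pulsed T2 cells measured by flow cytometry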
# Experimental: as §1
row,Signal/background,Binder
1,1,B1
2,1,B2
3,0.9,B3
4,0.9,B4
5,1,B5
6,0.9,B6
7,1.1,B7
8,1,B8
9,1,B9
10,0.8,B10
11,0.9,B11
12,1.1,B12

# Molecular target: T4, MAGEB2 peptide … (SEQ ID NO: 1) complexed with HLA-A*02:01 on the cell surface (human)
# T4 construct: whole, on cells; also called pMAGE-HLA; MAGEB2 pMHC
# Assay: flow cytometry, peptide-loaded T2 cells;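 note: binding of single-chain Fv antibody constructs, raised in XenoMouse, to peptide-pulsed T2 cells measured by flow cytometry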
# Experimental: as §1
row,Signal/background,Binder
1,560,B1
2,320,B2
3,193,B3
4,273,B4
5,481,B5
6,205,B6
7,289,B7
8,202,B8
9,365,B9
10,208,B10
11,431,B11
12,176,B12

# Molecular target: T5, COX14 peptide complexed with HLA-A*02:01 on T2 cells (human)
# T5 construct: whole, on cells
# Assay: flow cytometry, peptide-loaded T2 cells
# Experimental: as §1
row,Signal/background,Binder
1,1,B1
2,0.9,B2
3,0.8,B3
4,0.9,B4
5,0.9,B5
6,0.9,B6
7,0.9,B7
8,0.9,B8
9,1,B9
10,1,B10
11,1,B11
12,1.1,B12

# Molecular target: T6, CNDP2 peptide complexed with HLA-A*02:01 on T2 cells (human)
# T6 construct: whole, on cells; also called CNPD2
# Assay: flow cytometry, peptide-loaded T2 cells
# Experimental: as §1
row,Signal/background,Binder
1,1,B1
2,1,B2
3,0.9,B3
4,0.8,B4
5,1,B5
6,0.8,B6
7,0.9,B7
8,0.8,B8
9,1,B9
10,0.8,B10
11,1,B11
12,1,B12

# Molecular target: T7, KEA peptide complexed with HLA-A*02:01 on T2 cells (human)
# T7 construct: whole, on cells
# Assay: flow cytometry, peptide-loaded T2 cells
# Experimental: as §1
row,Signal/background,Binder
1,0.9,B1
2,0.9,B2
3,0.9,B3
4,0.8,B4
5,1,B5
6,0.9,B6
7,0.9,B7
8,0.9,B8
9,1,B9
10,0.9,B10
11,0.9,B11
12,1,B12

# Molecular target: T8, ADF peptide complexed with HLA-A*02:01 on T2 cells (human)
# T8 construct: whole, on cells
# Assay: flow cytometry, peptide-loaded T2 cells
# Experimental: as §1
row,Signal/background,Binder
1,0.9,B1
2,1,B2
3,1,B3
4,0.9,B4
5,1,B5
6,1,B6
7,1,B7
8,1.1,B8
9,1,B9
10,1,B10
11,1,B11
12,1.1,B12

# Molecular target: T9, SLK peptide complexed with HLA-A*02:01 on T2 cells (human)
# T9 construct: whole, on cells
# Assay: flow cytometry, peptide-loaded T2 cells
# Experimental: as §1
row,Signal/background,Binder
1,1,B1
2,1,B2
3,1,B3
4,1,B4
5,1.2,B5
6,1,B6
7,1.1,B7
8,1,B8
9,1,B9
10,0.9,B10
11,1,B11
12,1.3,B12

# Molecular target: T10, STXBP5 peptide complexed with HLA-A*02:01 on T2 cells (human)
# T10 construct: whole, on cells
# Assay: flow cytometry, peptide-loaded T2 cells
# Experimental: as §1
row,Signal/background,Binder
1,1,B1
2,0.9,B2
3,1,B3
4,0.8,B4
5,1.1,B5
6,0.8,B6
7,1,B7
8,0.8,B8
9,1,B9
10,0.9,B10
11,0.9,B11
12,1,B12
